Here are results for one molecule from patent publication CN110872351A.

The term EC20 denotes the concentration at which the effect reaches the 20% level. A lower EC20 goes with greater potency. In general, EC80 refers to the concentration needed for an effect of 80%. Low values mean an effect from little substance, high ones a need for much substance.

The target in the assay is GPC3蛋白 (glypican-3 protein expressed in eukaryotic HEK293 cells) (UniProt P51654). The assay can be described thus: sandwich ELISA: coated GPC3 polyclonal antibody, GPC3 protein at varied concentration, GN1-Luc fixed at 0.2 μg/mL, luminescence; the value is a GPC3 concentration. In general terms: In an ELISA, binding on a coated surface is turned into a signal by an enzyme label.
UniProt P51654, sequence (P51654 25-559 limits assumed): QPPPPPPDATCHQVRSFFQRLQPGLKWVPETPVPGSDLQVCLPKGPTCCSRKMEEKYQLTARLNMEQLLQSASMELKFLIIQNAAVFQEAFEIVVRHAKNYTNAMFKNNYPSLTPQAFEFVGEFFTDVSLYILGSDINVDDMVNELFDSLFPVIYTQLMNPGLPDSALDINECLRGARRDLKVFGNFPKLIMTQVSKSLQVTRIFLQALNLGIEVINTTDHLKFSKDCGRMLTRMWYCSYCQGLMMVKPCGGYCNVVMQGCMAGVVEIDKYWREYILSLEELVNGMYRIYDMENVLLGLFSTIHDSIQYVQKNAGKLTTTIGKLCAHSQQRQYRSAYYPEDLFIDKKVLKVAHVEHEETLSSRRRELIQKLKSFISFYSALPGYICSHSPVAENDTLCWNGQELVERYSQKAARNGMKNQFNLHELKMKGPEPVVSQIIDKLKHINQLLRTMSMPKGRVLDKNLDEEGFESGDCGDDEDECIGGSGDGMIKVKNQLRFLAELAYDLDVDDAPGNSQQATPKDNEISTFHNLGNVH

B1: 融合蛋白GN1-Luc (fusion of nanobody GN1 and Nano-luciferase) (protein, part only; not given: junction residues and His tag, part only)
chain, part: QVQLVESGGGLVQAGGSLRLSCAASGRTFVGSTMGWFRQAPGKEREFVARMSWLGRSTYYADSVKGRFTISRDNAKNTVYLQMNSLKPEDTAVYYCALALGYIDLARPDAVDAWGQGTLVTVSS
The molecule B1 showed an EC20 of 0.0519 µg/mL and an EC80 of 0.157 µg/mL.
